One test concerns the target T1, human CD3e/d (human, UniProt P07766 23-126; P04234 22-105).
T1 construct: Bought soluble protein; also called hCD3e/d; human CD3/ed (Sino CT038-H2508H)
As to the kind of experiment: SPR (Carterra LSA), mAb on chip. As to the method:
High-throughput surface plasmon resonance (SPR) coupled kinetic experiments were performed on a Carterra LSA® instrument equipped with an HC-30M chip type (Carterra, USA). The instrument uses two microfluidic modules, a single-flow cell (SFC) and a 96 printhead, to deliver samples to the chip surface via back-and-forth cycling of a fixed sample volume. An up to 384-ligand array is generated by docking the MFC onto each of the four nested print block locations in a serial manner.
The purified mAbs were immobilized on a Carterra LSA® HC-30M chip by direct coupling. The chip surface was first activated by flowing a freshly prepared 1:1:1 activation mix of 100 mM MES pH 5.5, 100 mM S-NHS, 400 mM EDC for 7 min. mAbs diluted to 10 μg/mL in 10 mM NaOAc pH 4.25+0.01% TWEEN®20 were then injected and printed onto the chip surface simultaneously using the MFC printhead for 10 min. Finally, the chip surface was quenched by flowing 1 M ethanolamine for 7 min (to block the excess reactive esters), followed by 2 wash steps of 15 s each in 25 mM MES pH 5.5. In addition to expressed and purified mAbs, relevant benchmarks and negative control mAbs were also printed on the chip surface.
The data were analyzed using the Carterra Kinetics analysis software. Briefly, the data were referenced with the interstitial reference spots and double-referenced to a buffer cycle, and then fit globally to a 1:1 Langmuir binding model to determine their apparent association (ka) and dissociation (kd) kinetic rate constants and binding affinity constants (KD).

In another test the target is human CD3 (human, UniProt P07766 23-207; P04234 22-171; P09693 23-182). Description: cell-based or functional assay.

Numbering of substitutions follows the chain as printed.

human CD3, sequence (P07766 23-207, chain 1 of 3): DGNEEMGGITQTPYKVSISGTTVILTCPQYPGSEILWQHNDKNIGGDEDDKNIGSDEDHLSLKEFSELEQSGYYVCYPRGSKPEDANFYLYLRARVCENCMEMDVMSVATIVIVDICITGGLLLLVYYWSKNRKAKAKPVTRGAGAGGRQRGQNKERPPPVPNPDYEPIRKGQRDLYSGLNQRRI
human CD3, sequence (P04234 22-171, chain 2 of 3): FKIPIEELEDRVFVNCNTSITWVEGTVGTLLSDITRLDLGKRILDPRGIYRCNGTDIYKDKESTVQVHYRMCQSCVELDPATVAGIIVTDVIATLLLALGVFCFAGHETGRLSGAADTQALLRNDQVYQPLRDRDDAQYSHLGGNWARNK
human CD3, sequence (P09693 23-182, chain 3 of 3): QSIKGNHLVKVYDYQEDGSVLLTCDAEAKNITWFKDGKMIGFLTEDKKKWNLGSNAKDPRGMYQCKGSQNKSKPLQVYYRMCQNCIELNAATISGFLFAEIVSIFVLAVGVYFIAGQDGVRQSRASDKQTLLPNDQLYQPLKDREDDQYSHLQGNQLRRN
T1 sequence (P07766 23-126, chain 1 of 2): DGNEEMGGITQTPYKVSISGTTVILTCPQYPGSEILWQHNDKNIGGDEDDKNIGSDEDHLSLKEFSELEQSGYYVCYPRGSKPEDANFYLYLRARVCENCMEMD
T1 sequence (P04234 22-105, chain 2 of 2): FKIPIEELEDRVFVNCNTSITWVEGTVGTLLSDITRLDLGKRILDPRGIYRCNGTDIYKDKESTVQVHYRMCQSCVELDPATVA

B1: mAb 140 (antibody, V domains shown)
VH: QVQLVESGGGVVQPGRSLRLSCAASGFTFSTYGMHWVRQAPGKGLEWVAVIWYDGSHKYYADSVKGRFTISRDNSKNTLYLQMNSLRAEDTAVYYCARTGITGTTAYFYFDYWGQGTLVTVSS
VL: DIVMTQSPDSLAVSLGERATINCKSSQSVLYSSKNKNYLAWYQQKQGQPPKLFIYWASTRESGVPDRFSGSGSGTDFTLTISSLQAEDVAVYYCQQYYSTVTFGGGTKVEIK
notes: VH and VL only
Usually Kd stands for the free concentration of one partner at which half of the binding sites on the other are occupied at equilibrium, for simple one-to-one binding. A high value points to a looser complex. For B1, the equilibrium dissociation constant (Kd) with human CD3e/d came out at 635 nM.

B2: mAb 127 (antibody, V domains shown)
VH: EVQLVESGGGLVKTGGSHRLSCVASGFSFKKAWMNWVRQAPGKGLEWVGRIKRNSDGGTTDYAAPVKGRFILSRDDSKNTLYLQMNSLKTEDTAVYYCTTLDSSSWYVGYYYMDVWGKGTTVTVSS
VL: DIQMTQSPSSVSASVGDRVTITCRASQDINNWLAWYQQKPGKAPKILIYTASNLQSGVPSRFSGSGSGTDFTLTISTLQPEDFATYFCQQAHGLPITFGQGTRLEIK
For B2, in the test with human CD3, the “CD4 EC50 (nM); CD69/CD25 on human T cells, plate-coated antibody” value (shortened to “CD4 EC50 (nM); CD69/CD25”) was found to be 10.2 nM and the “CD8 EC50 (nM); CD69/CD25 on human T cells, plate-coated antibody” value (“CD8 EC50 (nM); CD69/CD25” below) is 10.3 nM.

B3: mAb 129 (antibody, V domains shown)
VH: B2 VH with G10D, H18L, S55T, T59A, G68D, I71T
VL: DIHMTQSPSSVSASLGDRVTFTCRASQDINNWLAWYQQKPGKAPRLLIYTASSLQSGVPSRFSGSGSGTDFTLTISSLQPDDFATYYCQQAHSLPITFGQGTRLGIE
With B3, in the test with human CD3, the “CD4 EC50 (nM); CD69/CD25” value amounted to 12.5 nM and the “CD8 EC50 (nM); CD69/CD25” value was 12.5 nM.

B4: mAb 130 (antibody, V domains shown)
VH: B2 VH with H18L, T59A, G68D, I71T
VL: B3 VL with K39R, R45K, D81E, E107K
B4: in the test with human CD3, the “CD4 EC50 (nM); CD69/CD25” value came out at 10.9 nM and the “CD8 EC50 (nM); CD69/CD25” value came out at 10.8 nM.

B5: mAb 176 (antibody, V domains shown)
VH: EVELVESGGGLVQPGRSLRLSCAASGFKFDDYTMHWVRLPPGKGLEWVSGISWNSGTIDYGDSVKGRFTISRDNAKNSLYLQMNSLRVEDTALYYCAKDTSGYGHYFYYYMDVWGKGTTVTVSS
VL: DIQMTQSPSSLSASIGDRVSITCRTSQIINNYLNWYQQKPGKAPKVLIYSASSLQSGVPSRFSGSGSGTDFTLTINSLQPEDFATYYCQQSYNFPITFGQGTRLELK
notes: VH and VL only
Consider B5, for which binding with human CD3e/d was put at a Kd of 3.49 nM.

B6: mAb 126 (antibody, V domains shown)
VH: EVQLVESGGGLVQPGRSLRLSCAASGFTFNDYTMHWVRQVPGKGLEWVSGISWNSGSIDYADSVKGRFTISRDNAKNSLYLQMNSLRAEDTALYYCAKDSSGYGYYYYYYMDVWGKGTTVTVSS
VL: EIVMTQSPATLSVSPGERATLSCRASQSVSINLAWYQQKPGQAPRLLIYGASTRATGIPARFSGSGSGTEFTLTISSLQSEDFAVYYCQLYHNWPHFGQGTRLEIK
For the molecule B6, in the test with human CD3, the “CD4 EC50 (nM); CD69/CD25” value was found to be 10.2 nM and the “CD8 EC50 (nM); CD69/CD25” value was 11 nM.

B7: mAb 128 (antibody, V domains shown)
VH: B6 VH with N30D, V40A, D59G, Y110S
VL: B6 VL with I31S, H92Y, E104A
notes: VH and VL only
B7 returned a Kd with human CD3e/d of 186 nM.

B8: mAb 128 (antibody, V domains shown)
VH: B6 VH with N30D, V40A, D59G, Y110S
VL: B6 VL with I31S, H92Y, E104A
In the case of B8, in the test with human CD3, the “CD4 EC50 (nM); CD69/CD25” value was 11.6 nM and the “CD8 EC50 (nM); CD69/CD25” value was 11.7 nM.

B9: mAb 172 (antibody, V domains shown)
VH: B6 VH with A23T, A24T, N30D, G50D, I58V, D59G, A97V, Y105H, Y107F, Y108H
VL: DIQMTQSPSSLSASVGDRVTITCRASQSISNYLNWYQVKPGKAPKVLIYAASSLQSGVPSRFSGSGSGTDFTLTISSLQPEDFVSYYCHQSYNAPITFGQGTRLESK
notes: VH and VL only
For the molecule B9, in the test with human CD3e/d, the dissociation constant Kd was 4.83 nM.

B10: mAb 171 (antibody, V domains shown)
VH: B6 VH with N30A, V40A, K43Q, T69I, N77K, S78T, Y105H, Y108F, M111L
VL: B6 VL with I31S, G50S, A51T, G66R, F83S, L90Q, H92N
notes: VH and VL only
As for B10, in the test with human CD3e/d, the Kd turned out to be 18.4 nM.

B11: mAb 167 (antibody, V domains shown)
VH: EVHLVESGGGLVQPGRSLRLSCAASGFTFDDYAMHWVRQAPGKGLEWVSGISWNSGTIGYADSVKGRFTISRDNAKNSLYLEMNSLRAEDTALYYCAKDSSGYGHYYHYYIDVWGTGTTVTVSS
VL: B6 VL with E17G, S30G, I31S, G50D, S63R, S77G, H92Y
notes: VH and VL only
B11: binding with human CD3e/d was characterised by a dissociation constant (Kd) of 6.26 nM.

B12: mAb 118 (antibody, V domains shown)
VH: B6 VH with N30D, V40A, D59G, A97S, Y107L, Y108N, Y110S, M111L
VL: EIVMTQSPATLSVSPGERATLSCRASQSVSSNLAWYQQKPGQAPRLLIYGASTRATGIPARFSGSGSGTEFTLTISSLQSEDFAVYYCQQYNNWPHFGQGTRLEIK
notes: VH and VL only
B12 returned a dissociation constant (Kd) with human CD3e/d of 101 nM.

B13: mAb 173 (antibody, V domains shown)
VH: B6 VH with N30D, G50D, I58V, D59G, A97V, Y105H, Y107F, Y108H
VL: B9 VL with A94T, S106I
notes: VH and VL only
In the test with human CD3e/d, B13 came in with a Kd of 7.11 nM.

B14: mAb 126 (antibody, V domains shown)
VH: B6 VH
VL: B6 VL
notes: VH and VL only
As for B14, in the test with human CD3e/d, the dissociation constant (Kd) was 9.72 nM.

B15: mAb 161 (antibody, V domains shown)
VH: B6 VH with F27I, N30A, V40A, N77K, S78T, S85R, Y105H, Y108F, M111L
VL: B6 VL with I31N, G50S, A51T, G66R, F83S, L90Q, H92N
notes: VH and VL only
For B15, the equilibrium dissociation constant (Kd) with human CD3e/d was 24.1 nM.

B16: mAb 160 (antibody, V domains shown)
VH: B6 VH with A24V, D59G, Y95F, Y105H, K116R
VL: B6 VL with S30R, I31K, H92N
notes: VH and VL only
The molecule B16 had a Kd in the test with human CD3e/d of 15.2 nM.

B17: mAb 158 (antibody, V domains shown)
VH: B6 VH with N30A, I58V, N77K, S78T, Y105H, Y108F, M111L
VL: B6 VL with S26T, I31S, G50S, A51T, G66R, F83S, L90Q, H92N
notes: VH and VL only
With B17, in the test with human CD3e/d, the affinity, expressed as Kd, was 10.3 nM.

B18: mAb 170 (antibody, V domains shown)
VH: B6 VH with Q13R, N30D, V40A, D59G, A97S, Y107L, Y108N, Y110S, M111L
VL: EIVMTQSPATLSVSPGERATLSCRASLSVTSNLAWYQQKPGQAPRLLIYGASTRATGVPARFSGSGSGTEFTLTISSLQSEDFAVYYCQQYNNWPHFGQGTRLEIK
notes: VH and VL only
On to B18, for which the affinity with human CD3e/d, expressed as Kd, was 71.9 nM.

B19: mAb 162 (antibody, V domains shown)
VH: B11 VH with H3Q, D31N, T57S, M83L, H105Y, H108N, I111M, T116K
VL: B6 VL with S30R, I31S, R61K, L90Y, H92Y
notes: VH and VL only
In turn, B19 returned a Kd in the test with human CD3e/d of 19.4 nM.

B20: mAb 121 (antibody, V domains shown)
VH: B6 VH with A24T, N30A, V40A, N77K, Y95F, Y105H, Y108F, M111L
VL: B6 VL with A9G, E17K, I31S, A43G, G50S, A51T, F83S, L90H, H92N
notes: VH and VL only
In turn, B20 returned a dissociation constant (Kd) with human CD3e/d of 21 nM.

The record behind these values is patent publication US20230295310A1 (ABCELLERA BIOLOGICS, published 2023).
